Biological target: Recombinant TRAF-USP7 (residues 55 to 208) (UniProt Q93009 55-208)
Experiment: SPR

Chain of Recombinant TRAF-USP7 (residues 55 to 208) (Q93009 55-208): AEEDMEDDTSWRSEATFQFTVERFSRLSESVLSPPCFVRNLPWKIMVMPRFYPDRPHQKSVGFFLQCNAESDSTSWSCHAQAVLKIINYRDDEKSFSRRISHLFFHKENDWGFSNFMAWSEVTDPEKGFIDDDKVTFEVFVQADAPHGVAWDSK

- Kd: 18 nM
B1: Recombinant BTB-Keap1 (residues 48 to 180) (domain or fragment, UniProt Q14145 48-180, looked up)
chain: GNRTFSYTLEDHTKQAFGIMNELRLSQQLCDVTLQVKYQDAPAAQFMAHKVVLASSSPVFKAMFTNGLREQGMEVVSIEGIHPKVMERLIEFAYTASISMGEKCVLHVMNGAVMYQIDSVVRACSDFLVQQLD

Reference: article PMC9365288 (Science Advances, 2022)
